One block for each molecule: values may come before it.
Experiments:
[1] = biological target: T1, Ech2 complex (energy-converting hydrogenase Ech2) (Thermoanaerobacter kivui, UniProt A0A097ATF1+A0A097ATH3+A0A097ATI1); assay: Fd2-:H+ oxidoreductase activity, H2 by gas chromatography; assay type: biochemical; conditions: read-out: 50% inhibition
T1 construct: gene ech2A1; eight-subunit complex from T. kivui membranes (DDM), plasmid-encoded Ech2C with C-terminal 10x His tag, other subunits native; predicted monomer 248 kDa, active bands ~450 and ~520 kDa (dimer); with Energy-converting hydrogenase Ech2 subunit Ech2C; Energy-converting hydrogenase Ech2 subunit Ech2D; Energy-converting hydrogenase Ech2 subunit Ech2E; Energy-converting hydrogenase Ech2 subunit Ech2F; HycB2 (4Fe-4S ferredoxin-type subunit)

[2] = biological target: Ech2 complex (energy-converting hydrogenase 2) of T. kivui, His-tagged on Ech2C (Thermoanaerobacter kivui); assay: native gel or EMSA; purified Ech2 on nondenaturing PAGE with size standards, Coomassie stain and in-gel hydrogenase activity assay; bands of about 230, 450 and 520 kDa, only the 450 and 520 kDa bands active
[3] = biological target: Ech2 complex (energy-converting hydrogenase 2) of T. kivui, His-tagged on Ech2C (Thermoanaerobacter kivui)

Molecule: C(=NC1CCCCC1)=NC1CCCCC1 [DCCD]
IC50 [1]: 9.9 ± 0.4 µM

stoichiometry N [2]: 2
Molecule: Ech2 complex (energy-converting hydrogenase 2) of T. kivui, His-tagged on Ech2C, A0A097ATI1 1-625; A0A097ATF1 1-380; A0A097ATH3 1-311; A0A097ATJ2 1-141; A0A097ATJ6 1-120; A0A097ATH9 1-364; A0A097ATH4 1-156; A0A097ATH8 1-132

Km for Fd of the H2:Fd oxidoreductase reaction of purified Ech2 (0 to 90 μM Fd) [3]: 17.8 µM
B1: ferredoxin (Fd) isolated from Clostridium pasteurianum (natural protein)
chain: MAYKIADSCVSCGACASECPVNAISQGDSIFVIDADTCIDCGNCANVCPVGAPVQE
